Data published in publication PMC7660477.

Assays:
Experiment in all cases: microtubule co-sedimentation (taxol-mediated polymerisation, sucrose gradient centrifugation) with western blot quantification
VAPA = VAPA (UniProt Q9WV55); conditions: E18.5 forebrain, n = 3, mean ± s.e.m., parent: est. 0.30, read off a plot
EZRIN = EZRIN (UniProt P26040); conditions: E18.5 forebrain, n = 3, mean ± s.e.m., parent: est. 0.10, read off a plot
REEP1 = REEP1 (UniProt Q8BGH4); conditions: E18.5 forebrain, n = 3, mean ± s.e.m., parent: est. 0.28, read off a plot
VAPB = VAPB (UniProt Q9QY76); conditions: E18.5 forebrain, n = 3, mean ± s.e.m., parent: est. 0.27, read off a plot
[1] = target: dynein intermediate chain (DYNC1I1/2) (UniProt O88485); conditions: E18.5 forebrain; n = 3; mean ± s.e.m.; P<0.01; parent: est. 0.55; read off a plot
KIF5C = KIF5C (UniProt P28738); conditions: E18.5 forebrain, n = 3, mean ± s.e.m., parent: est. 0.61, read off a plot

microtubules from the forebrain of E18.5 R402H/R402H littermate controls (no Cre; wild-type Tuba1a expressed) (from UniProt P68369;P99024)
response (ratio MT pellet/lysate) (VAPA): 0.34 | response (ratio MT pellet/lysate) (EZRIN): 0.12 | response (ratio MT pellet/lysate) (REEP1): 0.05 | response (ratio MT pellet/lysate) (VAPB): 0.14 | response (ratio MT pellet/lysate) [1]: 0.29 | response (ratio MT pellet/lysate) (KIF5C): 0.6
